From patent US8697655B2, “Method of selecting polypeptide sequence, and metal oxide or silicon-containing compound binding peptide and use thereof” (Riken, priority 2010, dated 2014)

What was measured:
[1] = Binding of P-EGFs to TiO2 plate, anti-EGF antibody chemiluminescence detection; settings: about 2.0 ng, 10 μl in TBS pH 7.5; washed 3 times with TBS-T; anti-human EGF antibody and HRP secondary
Method: Subsequently, in accordance with a scheme in the left in FIG. 4-2, various P-EGF solutions (about 2.0 ng, 10 μl in TBS, pH 7.5) were added on a TiO2 plate (a plate produced by vapor deposition of titanium on the surface of a glass plate with a diameter of 15 mm and a thickness of 0.6 mm (manufactured by Matsunami Glass Ind., Ltd.) (the vapor deposition step was requested to Osaka Vacuum Industrial Co., Ltd.) was used); and a washing operation (TBS-T buffer, pH 7.5) was repeated 3 times. And, after blocking with 0.1% BSA solution, an anti-human EGF antibody was added as a primary antibody. Furthermore, after the washing operation (TBS-T buffer, pH 7.5) was repeated 3 times, an anti-mouse IgG antibody HRP conjugate was added as a secondary antibody. At the end, using a luminescent phenomenon by a reaction between a chemiluminescence reagent and HRP as an index, the presence of protein immobilized on the TiO2 plate was detected. […]
First, in accordance with a scheme in the left in FIG. 7-1, various P-EGF solutions (about 2.0 ng, 10 μl in TBS, pH 7.5) were added on a TiO2 plate and a washing operation (TBS-T buffer, pH 7.5) was repeated 3 times. […] At the end, using a luminescent phenomenon by a reaction between a chemiluminescence reagent and HRP as an index, the presence of protein immobilized on the TiO2 plate was detected.

[2] = system: NRK-49F fibroblasts; experiment: NRK-49F fibroblast proliferation on sTOP1-EGF immobilized TiO2 plate; assay type: cell-based; settings: about 5.0 ng immobilized; ca. 5,000 cells seeded; 6 days; 1% FBS DMEM; vs TiO2 plate with EGF alone added
Method: First, in accordance with a scheme in the left in FIG. 7-2, sTOP1-EGF solution (about 5.0 ng, 12 μl in TBS, pH 7.5) was added onto the TiO2 plate and a washing operation (TBS-T buffer, pH 7.5) was then repeated 3 times. And, by blocking with 0.1% BSA solution, a “sTOP1-EGF immobilized TiO2 plate” was prepared. And then, ca. 5,000 NRK-49F fibroblasts were seeded on the sTOP1-EGF immobilized TiO2 plate, cultured for 6 days (1% FBS containing DMEM medium was used), and subjected to microscopy (cells were not stained).

B1: MQAYYNYYSNYYGRSYSSDGQLGQFEGNSDSECPLSHDGYCLHDGVCMYI EALDKYACNCVVGYIGERCQYRDLKWWELR (peptide)
chain: MQAYYNYYSNYYGRSYSSDGQLGQFEGNSDSECPLSHDGYCLHDGVCMYIEALDKYACNCVVGYIGERCQYRDLKWWELR
notes: chemically synthesized TOP1-EGF composed of 80 amino acids, made by peptide solid phase method
[1]
  TiO2 plate binding (luminescent phenomenon of protein immobilized on the plate): the luminescent phenomenon could be confirmed
[2]
  Proliferation of NRK-49F fibroblasts on the immobilized TiO2 plate (microscopy): markedly proliferated
